Experimental data from patent publication US20180155451A1 (published 2018).

These binders were tested against T1, FcγRIIb (human, UniProt P31994 43-217) (assay: SPR (Biacore), binding relative to GpH7-B3/GpL16-k0 = 100).
T1 construct: extracellular domain; also called 2b; FcgRIIb
T1 sequence (looked up): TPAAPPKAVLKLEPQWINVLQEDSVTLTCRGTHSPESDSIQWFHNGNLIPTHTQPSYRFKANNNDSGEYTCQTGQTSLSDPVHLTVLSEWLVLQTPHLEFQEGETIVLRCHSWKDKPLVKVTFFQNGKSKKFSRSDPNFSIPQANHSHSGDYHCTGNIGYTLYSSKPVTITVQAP

Binder	Ho/Con_2b
GpH7-B3 variant S239_10E/GpL16-k0 (antibody, human IgG1, kappa, also called Ho Ab S239_10E) heavy: not shown light: DIVMTQSPLSLPVTPGEPASISCQASESLVHSNRNTYLHWYLQKPGQSPQLLIYKVSNRFSGVPDRFSGSGSGTDFTLKISRVEAEDVGVYYCSQNTHVPPTFGQGTKVEIERTVAAPSVFIFPPSDEQLKSGTASVVCLLNNFYPREAKVQWKVDNALQSGNSQESVTEQDSKDSTYSLSSTLTLSKADYEKHKVYACEVTHQGLSSPVTKSFNRGEC	175 % of control
GpH7-B3 variant S267_01G/GpL16-k0 (antibody, human IgG1, kappa, also called Ho Ab S267_01G) heavy: not shown light: DIVMTQSPLSLPVTPGEPASISCQASESLVHSNRNTYLHWYLQKPGQSPQLLIYKVSNRFSGVPDRFSGSGSGTDFTLKISRVEAEDVGVYYCSQNTHVPPTFGQGTKVEIERTVAAPSVFIFPPSDEQLKSGTASVVCLLNNFYPREAKVQWKVDNALQSGNSQESVTEQDSKDSTYSLSSTLTLSKADYEKHKVYACEVTHQGLSSPVTKSFNRGEC	97 % of control
GpH7-B3 variant S267_06M/GpL16-k0 (antibody, human IgG1, kappa, also called Ho Ab S267_06M) heavy: not shown light: DIVMTQSPLSLPVTPGEPASISCQASESLVHSNRNTYLHWYLQKPGQSPQLLIYKVSNRFSGVPDRFSGSGSGTDFTLKISRVEAEDVGVYYCSQNTHVPPTFGQGTKVEIERTVAAPSVFIFPPSDEQLKSGTASVVCLLNNFYPREAKVQWKVDNALQSGNSQESVTEQDSKDSTYSLSSTLTLSKADYEKHKVYACEVTHQGLSSPVTKSFNRGEC	187 % of control
GpH7-B3 variant S267_19Q/GpL16-k0 (antibody, human IgG1, kappa, also called Ho Ab S267_19Q) heavy: not shown light: DIVMTQSPLSLPVTPGEPASISCQASESLVHSNRNTYLHWYLQKPGQSPQLLIYKVSNRFSGVPDRFSGSGSGTDFTLKISRVEAEDVGVYYCSQNTHVPPTFGQGTKVEIERTVAAPSVFIFPPSDEQLKSGTASVVCLLNNFYPREAKVQWKVDNALQSGNSQESVTEQDSKDSTYSLSSTLTLSKADYEKHKVYACEVTHQGLSSPVTKSFNRGEC	185 % of control
GpH7-B3 variant S298_06M/GpL16-k0 (antibody, human IgG1, kappa, also called Ho Ab S298_06M) heavy: not shown light: DIVMTQSPLSLPVTPGEPASISCQASESLVHSNRNTYLHWYLQKPGQSPQLLIYKVSNRFSGVPDRFSGSGSGTDFTLKISRVEAEDVGVYYCSQNTHVPPTFGQGTKVEIERTVAAPSVFIFPPSDEQLKSGTASVVCLLNNFYPREAKVQWKVDNALQSGNSQESVTEQDSKDSTYSLSSTLTLSKADYEKHKVYACEVTHQGLSSPVTKSFNRGEC	101 % of control
GpH7-B3 variant S324_06M/GpL16-k0 (antibody, human IgG1, kappa, also called Ho Ab S324_06M) heavy: not shown light: DIVMTQSPLSLPVTPGEPASISCQASESLVHSNRNTYLHWYLQKPGQSPQLLIYKVSNRFSGVPDRFSGSGSGTDFTLKISRVEAEDVGVYYCSQNTHVPPTFGQGTKVEIERTVAAPSVFIFPPSDEQLKSGTASVVCLLNNFYPREAKVQWKVDNALQSGNSQESVTEQDSKDSTYSLSSTLTLSKADYEKHKVYACEVTHQGLSSPVTKSFNRGEC	104 % of control
GpH7-B3 variant S337_07I/GpL16-k0 (antibody, human IgG1, kappa, also called Ho Ab S337_07I) heavy: not shown light: DIVMTQSPLSLPVTPGEPASISCQASESLVHSNRNTYLHWYLQKPGQSPQLLIYKVSNRFSGVPDRFSGSGSGTDFTLKISRVEAEDVGVYYCSQNTHVPPTFGQGTKVEIERTVAAPSVFIFPPSDEQLKSGTASVVCLLNNFYPREAKVQWKVDNALQSGNSQESVTEQDSKDSTYSLSSTLTLSKADYEKHKVYACEVTHQGLSSPVTKSFNRGEC	96.6 % of control
GpH7-B3 variant S337_08L/GpL16-k0 (antibody, human IgG1, kappa, also called Ho Ab S337_08L) heavy: not shown light: DIVMTQSPLSLPVTPGEPASISCQASESLVHSNRNTYLHWYLQKPGQSPQLLIYKVSNRFSGVPDRFSGSGSGTDFTLKISRVEAEDVGVYYCSQNTHVPPTFGQGTKVEIERTVAAPSVFIFPPSDEQLKSGTASVVCLLNNFYPREAKVQWKVDNALQSGNSQESVTEQDSKDSTYSLSSTLTLSKADYEKHKVYACEVTHQGLSSPVTKSFNRGEC	90.7 % of control
GpH7-B3 variant S337_15Y/GpL16-k0 (antibody, human IgG1, kappa, also called Ho Ab S337_15Y) heavy: not shown light: DIVMTQSPLSLPVTPGEPASISCQASESLVHSNRNTYLHWYLQKPGQSPQLLIYKVSNRFSGVPDRFSGSGSGTDFTLKISRVEAEDVGVYYCSQNTHVPPTFGQGTKVEIERTVAAPSVFIFPPSDEQLKSGTASVVCLLNNFYPREAKVQWKVDNALQSGNSQESVTEQDSKDSTYSLSSTLTLSKADYEKHKVYACEVTHQGLSSPVTKSFNRGEC	93.4 % of control
GpH7-B3 variant S337_16H/GpL16-k0 (antibody, human IgG1, kappa, also called Ho Ab S337_16H) heavy: not shown light: DIVMTQSPLSLPVTPGEPASISCQASESLVHSNRNTYLHWYLQKPGQSPQLLIYKVSNRFSGVPDRFSGSGSGTDFTLKISRVEAEDVGVYYCSQNTHVPPTFGQGTKVEIERTVAAPSVFIFPPSDEQLKSGTASVVCLLNNFYPREAKVQWKVDNALQSGNSQESVTEQDSKDSTYSLSSTLTLSKADYEKHKVYACEVTHQGLSSPVTKSFNRGEC	103 % of control
GpH7-B3 variant S337_18N/GpL16-k0 (antibody, human IgG1, kappa, also called Ho Ab S337_18N) heavy: not shown light: DIVMTQSPLSLPVTPGEPASISCQASESLVHSNRNTYLHWYLQKPGQSPQLLIYKVSNRFSGVPDRFSGSGSGTDFTLKISRVEAEDVGVYYCSQNTHVPPTFGQGTKVEIERTVAAPSVFIFPPSDEQLKSGTASVVCLLNNFYPREAKVQWKVDNALQSGNSQESVTEQDSKDSTYSLSSTLTLSKADYEKHKVYACEVTHQGLSSPVTKSFNRGEC	98 % of control
GpH7-B3 variant S337_20W/GpL16-k0 (antibody, human IgG1, kappa, also called Ho Ab S337_20W) heavy: not shown light: DIVMTQSPLSLPVTPGEPASISCQASESLVHSNRNTYLHWYLQKPGQSPQLLIYKVSNRFSGVPDRFSGSGSGTDFTLKISRVEAEDVGVYYCSQNTHVPPTFGQGTKVEIERTVAAPSVFIFPPSDEQLKSGTASVVCLLNNFYPREAKVQWKVDNALQSGNSQESVTEQDSKDSTYSLSSTLTLSKADYEKHKVYACEVTHQGLSSPVTKSFNRGEC	99.6 % of control
GpH7-B3 variant T335_07I/GpL16-k0 (antibody, human IgG1, kappa, also called Ho Ab T335_07I) heavy: not shown light: DIVMTQSPLSLPVTPGEPASISCQASESLVHSNRNTYLHWYLQKPGQSPQLLIYKVSNRFSGVPDRFSGSGSGTDFTLKISRVEAEDVGVYYCSQNTHVPPTFGQGTKVEIERTVAAPSVFIFPPSDEQLKSGTASVVCLLNNFYPREAKVQWKVDNALQSGNSQESVTEQDSKDSTYSLSSTLTLSKADYEKHKVYACEVTHQGLSSPVTKSFNRGEC	104 % of control
GpH7-B3 variant T335_10E/GpL16-k0 (antibody, human IgG1, kappa, also called Ho Ab T335_10E) heavy: not shown light: DIVMTQSPLSLPVTPGEPASISCQASESLVHSNRNTYLHWYLQKPGQSPQLLIYKVSNRFSGVPDRFSGSGSGTDFTLKISRVEAEDVGVYYCSQNTHVPPTFGQGTKVEIERTVAAPSVFIFPPSDEQLKSGTASVVCLLNNFYPREAKVQWKVDNALQSGNSQESVTEQDSKDSTYSLSSTLTLSKADYEKHKVYACEVTHQGLSSPVTKSFNRGEC	108 % of control
GpH7-B3 variant T335_13S/GpL16-k0 (antibody, human IgG1, kappa, also called Ho Ab T335_13S) heavy: not shown light: DIVMTQSPLSLPVTPGEPASISCQASESLVHSNRNTYLHWYLQKPGQSPQLLIYKVSNRFSGVPDRFSGSGSGTDFTLKISRVEAEDVGVYYCSQNTHVPPTFGQGTKVEIERTVAAPSVFIFPPSDEQLKSGTASVVCLLNNFYPREAKVQWKVDNALQSGNSQESVTEQDSKDSTYSLSSTLTLSKADYEKHKVYACEVTHQGLSSPVTKSFNRGEC	95.2 % of control
GpH7-B3 variant T335_15Y/GpL16-k0 (antibody, human IgG1, kappa, also called Ho Ab T335_15Y) heavy: not shown light: DIVMTQSPLSLPVTPGEPASISCQASESLVHSNRNTYLHWYLQKPGQSPQLLIYKVSNRFSGVPDRFSGSGSGTDFTLKISRVEAEDVGVYYCSQNTHVPPTFGQGTKVEIERTVAAPSVFIFPPSDEQLKSGTASVVCLLNNFYPREAKVQWKVDNALQSGNSQESVTEQDSKDSTYSLSSTLTLSKADYEKHKVYACEVTHQGLSSPVTKSFNRGEC	104 % of control
GpH7-B3 variant T335_16H/GpL16-k0 (antibody, human IgG1, kappa, also called Ho Ab T335_16H) heavy: not shown light: DIVMTQSPLSLPVTPGEPASISCQASESLVHSNRNTYLHWYLQKPGQSPQLLIYKVSNRFSGVPDRFSGSGSGTDFTLKISRVEAEDVGVYYCSQNTHVPPTFGQGTKVEIERTVAAPSVFIFPPSDEQLKSGTASVVCLLNNFYPREAKVQWKVDNALQSGNSQESVTEQDSKDSTYSLSSTLTLSKADYEKHKVYACEVTHQGLSSPVTKSFNRGEC	97.2 % of control
GpH7-B3 variant T335_18N/GpL16-k0 (antibody, human IgG1, kappa, also called Ho Ab T335_18N) heavy: not shown light: DIVMTQSPLSLPVTPGEPASISCQASESLVHSNRNTYLHWYLQKPGQSPQLLIYKVSNRFSGVPDRFSGSGSGTDFTLKISRVEAEDVGVYYCSQNTHVPPTFGQGTKVEIERTVAAPSVFIFPPSDEQLKSGTASVVCLLNNFYPREAKVQWKVDNALQSGNSQESVTEQDSKDSTYSLSSTLTLSKADYEKHKVYACEVTHQGLSSPVTKSFNRGEC	96.1 % of control
GpH7-B3 variant T335_19Q/GpL16-k0 (antibody, human IgG1, kappa, also called Ho Ab T335_19Q) heavy: not shown light: DIVMTQSPLSLPVTPGEPASISCQASESLVHSNRNTYLHWYLQKPGQSPQLLIYKVSNRFSGVPDRFSGSGSGTDFTLKISRVEAEDVGVYYCSQNTHVPPTFGQGTKVEIERTVAAPSVFIFPPSDEQLKSGTASVVCLLNNFYPREAKVQWKVDNALQSGNSQESVTEQDSKDSTYSLSSTLTLSKADYEKHKVYACEVTHQGLSSPVTKSFNRGEC	97.3 % of control
GpH7-B3 variant T335_20W/GpL16-k0 (antibody, human IgG1, kappa, also called Ho Ab T335_20W) heavy: not shown light: DIVMTQSPLSLPVTPGEPASISCQASESLVHSNRNTYLHWYLQKPGQSPQLLIYKVSNRFSGVPDRFSGSGSGTDFTLKISRVEAEDVGVYYCSQNTHVPPTFGQGTKVEIERTVAAPSVFIFPPSDEQLKSGTASVVCLLNNFYPREAKVQWKVDNALQSGNSQESVTEQDSKDSTYSLSSTLTLSKADYEKHKVYACEVTHQGLSSPVTKSFNRGEC	94.4 % of control
GpH7-B3 variant V266_06M/GpL16-k0 (antibody, human IgG1, kappa, also called Ho Ab V266_06M) heavy: not shown light: DIVMTQSPLSLPVTPGEPASISCQASESLVHSNRNTYLHWYLQKPGQSPQLLIYKVSNRFSGVPDRFSGSGSGTDFTLKISRVEAEDVGVYYCSQNTHVPPTFGQGTKVEIERTVAAPSVFIFPPSDEQLKSGTASVVCLLNNFYPREAKVQWKVDNALQSGNSQESVTEQDSKDSTYSLSSTLTLSKADYEKHKVYACEVTHQGLSSPVTKSFNRGEC	231 % of control
GpH7-B3 variant Y296_20W/GpL16-k0 (antibody, human IgG1, kappa, also called Ho Ab Y296_20W) heavy: not shown light: DIVMTQSPLSLPVTPGEPASISCQASESLVHSNRNTYLHWYLQKPGQSPQLLIYKVSNRFSGVPDRFSGSGSGTDFTLKISRVEAEDVGVYYCSQNTHVPPTFGQGTKVEIERTVAAPSVFIFPPSDEQLKSGTASVVCLLNNFYPREAKVQWKVDNALQSGNSQESVTEQDSKDSTYSLSSTLTLSKADYEKHKVYACEVTHQGLSSPVTKSFNRGEC	103 % of control
